Measurements from patent publication US20260209316A1 (US Dept. of Health and Human Services, published 2026).
Read-outs that look alike come from different tables or passages of the source.

T1: full-length Zaire GP (GPFL) (Ebola (Zaire) virus (EBOV), UniProt Q05320 33-632)
T1 construct: also called Zaire GPFL; GP(Z)FL
T1 sequence: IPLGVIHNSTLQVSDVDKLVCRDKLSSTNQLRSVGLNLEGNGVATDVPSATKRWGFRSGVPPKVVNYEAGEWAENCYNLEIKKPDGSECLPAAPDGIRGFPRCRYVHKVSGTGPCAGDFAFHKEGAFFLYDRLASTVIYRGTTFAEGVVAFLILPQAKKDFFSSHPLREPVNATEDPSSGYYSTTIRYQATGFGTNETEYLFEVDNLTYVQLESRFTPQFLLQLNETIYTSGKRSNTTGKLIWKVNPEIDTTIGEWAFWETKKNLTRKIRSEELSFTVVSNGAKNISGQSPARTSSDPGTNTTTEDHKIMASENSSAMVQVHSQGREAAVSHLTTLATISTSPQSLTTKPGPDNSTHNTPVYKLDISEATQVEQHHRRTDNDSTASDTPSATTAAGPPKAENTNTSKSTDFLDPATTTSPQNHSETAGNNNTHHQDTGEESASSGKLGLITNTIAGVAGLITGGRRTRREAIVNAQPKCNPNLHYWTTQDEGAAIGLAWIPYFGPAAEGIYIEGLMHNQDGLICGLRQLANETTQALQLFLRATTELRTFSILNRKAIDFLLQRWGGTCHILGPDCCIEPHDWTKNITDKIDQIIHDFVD

T2: EBOV GP on pseudotyped lentiviral vector (Ebola (Zaire) virus (EBOV), UniProt Q05320 33-676)
T2 sequence: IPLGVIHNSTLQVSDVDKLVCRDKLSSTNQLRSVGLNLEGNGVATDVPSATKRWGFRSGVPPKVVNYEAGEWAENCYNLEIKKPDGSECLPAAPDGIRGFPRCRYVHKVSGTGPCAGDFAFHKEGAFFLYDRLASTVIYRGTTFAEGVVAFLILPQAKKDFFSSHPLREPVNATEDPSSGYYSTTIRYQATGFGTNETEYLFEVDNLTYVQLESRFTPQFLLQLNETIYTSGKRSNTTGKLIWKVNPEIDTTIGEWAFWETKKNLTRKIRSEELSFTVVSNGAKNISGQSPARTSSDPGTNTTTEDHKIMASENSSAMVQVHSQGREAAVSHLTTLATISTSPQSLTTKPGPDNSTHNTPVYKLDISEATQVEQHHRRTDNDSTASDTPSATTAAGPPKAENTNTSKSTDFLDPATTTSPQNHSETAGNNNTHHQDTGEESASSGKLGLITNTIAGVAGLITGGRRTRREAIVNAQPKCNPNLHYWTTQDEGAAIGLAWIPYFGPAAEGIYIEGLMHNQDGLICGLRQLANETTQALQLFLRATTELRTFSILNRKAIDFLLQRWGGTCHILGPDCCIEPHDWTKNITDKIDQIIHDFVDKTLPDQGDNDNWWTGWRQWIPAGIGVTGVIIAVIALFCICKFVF

T3: full-length Sudan GP (GPFL) (Sudan virus (SUDV), UniProt Q7T9D9 33-650)
T3 construct: also called Sudan GPFL; GP(S)FL
T3 sequence: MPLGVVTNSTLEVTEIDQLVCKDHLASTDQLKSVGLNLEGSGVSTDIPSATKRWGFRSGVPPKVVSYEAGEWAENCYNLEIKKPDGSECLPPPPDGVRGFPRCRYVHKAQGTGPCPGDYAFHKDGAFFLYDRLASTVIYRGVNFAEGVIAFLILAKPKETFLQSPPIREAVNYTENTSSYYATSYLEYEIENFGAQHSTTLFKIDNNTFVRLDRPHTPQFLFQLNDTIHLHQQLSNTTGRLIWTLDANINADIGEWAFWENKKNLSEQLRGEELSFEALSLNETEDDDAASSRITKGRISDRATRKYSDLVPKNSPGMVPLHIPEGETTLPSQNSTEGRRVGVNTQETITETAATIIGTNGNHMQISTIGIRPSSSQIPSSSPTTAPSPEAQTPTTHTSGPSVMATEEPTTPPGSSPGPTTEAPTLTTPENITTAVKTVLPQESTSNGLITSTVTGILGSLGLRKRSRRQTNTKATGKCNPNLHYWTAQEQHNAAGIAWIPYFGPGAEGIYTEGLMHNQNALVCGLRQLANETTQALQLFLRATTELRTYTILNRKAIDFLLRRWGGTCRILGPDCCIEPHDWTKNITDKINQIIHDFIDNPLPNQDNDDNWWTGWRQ

T4: SUDV GP on pseudotyped lentiviral vector (Sudan virus (SUDV), UniProt Q7T9D9 33-676)
T4 sequence: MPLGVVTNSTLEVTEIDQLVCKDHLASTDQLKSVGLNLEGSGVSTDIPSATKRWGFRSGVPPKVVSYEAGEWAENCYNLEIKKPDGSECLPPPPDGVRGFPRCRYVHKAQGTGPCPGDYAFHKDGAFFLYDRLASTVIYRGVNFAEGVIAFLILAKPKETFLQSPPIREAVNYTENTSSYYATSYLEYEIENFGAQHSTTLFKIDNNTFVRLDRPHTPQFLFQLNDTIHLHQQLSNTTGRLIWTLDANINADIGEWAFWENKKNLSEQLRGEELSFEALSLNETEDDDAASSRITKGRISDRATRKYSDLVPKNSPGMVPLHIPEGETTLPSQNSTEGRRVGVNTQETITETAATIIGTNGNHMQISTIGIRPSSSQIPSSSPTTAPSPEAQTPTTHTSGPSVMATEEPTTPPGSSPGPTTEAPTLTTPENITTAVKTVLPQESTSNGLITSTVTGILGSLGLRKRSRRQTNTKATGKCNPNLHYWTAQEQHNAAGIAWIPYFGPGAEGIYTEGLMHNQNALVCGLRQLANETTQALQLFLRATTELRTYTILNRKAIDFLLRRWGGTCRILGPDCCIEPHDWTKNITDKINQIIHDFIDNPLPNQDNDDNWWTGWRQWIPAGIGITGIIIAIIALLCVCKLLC

B1: antibody mAb114 (antibody, V domains shown)
VH: EVQLVESGGGLIQPGGSLRLSCAASGFALRMYDMHWVRQTIDKRLEWVSAVGPSGDTYYADSVKGRFAVSRENAKNSLSLQMNSLTAGDTAIYYCVRSDRGVAGLFDSWGQGILVTVSS
VL: DIQMTQSPSSLSASVGDRITITCRASQAFDNYVAWYQQRPGKVPKLLISAASALHAGVPSRFSGSGSGTHFTLTISSLQPEDVATYYCQNYNSAPLTFGGGTKVEIK
B2: antibody 316L (antibody, V domains shown)
VH: EERLVESGGGLVQPGGSLRLSCAASGFTFGDYAMHWVRQVPGKSLEWLSGISWSGYTTYSADSVKGRFTISRDNAKNSLYLQMNRLRPEDTGLYYCVTLIGAIGIKDSLDVWGRGVLVTVSS
VL: QSVLTQPPSVSGAPGQRVTVSCSGSSSNIGAGNYVQWYQQLPGTAPKVLIYQTEKRPSGTSDRFSGSKSDTSASLTINGLQSEDEADYYCQVYDSNLNGWVFGGGTRLTVLG
notes: also called 316L mAb; mAb 316L
B3: antibody 380L (antibody, V domains shown)
VH: EVQLVESGGGLVQPGGSLTLSCAASGFTFGDYVMHWVRQVPGRGLEWLSAVSWSGYTTYSADSVKGRFTISRDNAKNSLYLQMSRLGTADTGLYYCVTLIGAIGIRDSFDAWGRGVLVTVSS
VL: QSVLTQPPSMSGAPGQRVTVSCTGSSSNIGAGNYVQWYQQLPGTAPKVLIYQTDKRPSGISDRFSGSKSGTSASLTISGLQSEDEADYYCQVYDSSLNGWVFGGGTRLTVL
notes: also called 380L mAb; mAb 380L
B4: antibody 291S (antibody, V domains shown)
VH: QVQLQESGPGLVKPSQTLSLTCTVSGGSFSSGFYWSWIRQRPGKGLEWVGYTYYSGSTYYNPSLQSRVTISVDTSKNQFSLNLSSVTAADTAVYHCARADYGGLFDYWGQGILVTVSS
VL: QSVLTQPSSLSASPGASASLTCTLRSGINVGTYRIFWYQQKPGSPPQFLLRYNSDSDKQQGSGVPSRFSGSKDASANAGILLISGLQSEDEADYYCMIWHTSAWVFGGGTKLTVL
B5: antibody 545S (antibody, V domains shown)
VH: QVQLQESGPGLVKPSQTLSLTCTVSGGSISRAGSYWSWIRQHPGKGLEWIGYISYSGSTYYNPSLESRVTMSLDTSKSQFSLKLSSVTAADTAVYYCAREDRSGFYGLDVWGQGTTVTVSS
VL: QSVLTQPSSLSASPGATASLTCTLRSGINVDTYRIYWYQQKPGSPPQYLLRYKSDSDKHQGSGVPSRFSGSKDASANAGILLISGLQSADEADYYCMIWHSGAWVFGGGTKLTVQG
notes: also called 545S mAb

Experiments:
[1] = target: T1, full-length Zaire GP (GPFL); assay: ELISA on coated GP
[2] = target: T2, EBOV GP on pseudotyped lentiviral vector; assay: cell-based or functional assay
[3] = target: T1, full-length Zaire GP (GPFL); assay: ELISA on coated GP; remark: listed apart in the source
[4] = target: T2, EBOV GP on pseudotyped lentiviral vector; assay: cell-based or functional assay; remark: listed apart in the source
[5] = target: T3, full-length Sudan GP (GPFL); assay: ELISA on coated GP
[6] = target: T4, SUDV GP on pseudotyped lentiviral vector; assay: cell-based or functional assay
[7] = target: T3, full-length Sudan GP (GPFL); assay: ELISA on coated GP; remark: listed apart in the source
[8] = target: T4, SUDV GP on pseudotyped lentiviral vector; assay: cell-based or functional assay; remark: listed apart in the source

| Binder | EC50 [1] [µg/mL] | IC50, microneutralization of GP-pseudotyped lentiviral vector on HEK293 cells [2] [µg/mL] | EC50 [3] [µg/mL] | IC50, microneutralization of GP-pseudotyped lentiviral vector on HEK293 cells [4] [µg/mL] | EC50 [5] [µg/mL] | IC50, microneutralization of GP-pseudotyped lentiviral vector on HEK293 cells [6] [µg/mL] | EC50 [7] [µg/mL] | IC50, microneutralization of GP-pseudotyped lentiviral vector on HEK293 cells [8] [µg/mL] |
| --- | --- | --- | --- | --- | --- | --- | --- | --- |
| B1 | 0.0239 | 0.18 | 0.02 | 0.152 | – | – | – | – |
| B2 | 0.0441 | – | – | 1.77 | 0.0175 | 0.284 | – | – |
| B3 | 0.0398 | – | – | 0.756 | 0.0195 | 0.395 | – | – |
| B4 | – | – | – | – | – | – | 0.0565 | 2.89 |
| B5 | – | – | – | – | – | – | 0.0338 | 0.624 |
